Experimental data from article PMC4359366, “Lis1 regulates dynein by sterically blocking its mechanochemical cycle” (eLife, 2014).

Legend:
[1] = molecular target: GST-dynein_(331kDa) (S. cerevisiae); experiment: SEC; 400–800 nM dynein and 475–800 nM Lis1 mixed for 10 min at 4°C; Superose 6 PC 3.2/30; 50 mM Tris–HCl pH 8.0, 150 mM potassium acetate, 2 mM magnesium acetate, 1 mM EGTA, 1 mM DTT; fractions on SDS-PAGE with SYPRO Red, bands quantified in ImageJ
[2] = molecular target: T1, short linker dynein, DYN1_(314kDa), without GFP (S. cerevisiae, UniProt P36022 1365-4092); experiment: cryo-EM structure; cryo-negative stain EM, single-particle 3D reconstruction; monomeric dynein (80–120 nM) pre-incubated for 10 min with Lis1 dimer at a 1.5-fold excess (120–180 nM); no nucleotide (apyrase 0.14 U/ml, 15 min); 2% uranyl formate; settings: both partners purified
T1 construct: ZZ tag probably cut off by Tev; also called short linker construct
T1 sequence (P36022 1365-4092): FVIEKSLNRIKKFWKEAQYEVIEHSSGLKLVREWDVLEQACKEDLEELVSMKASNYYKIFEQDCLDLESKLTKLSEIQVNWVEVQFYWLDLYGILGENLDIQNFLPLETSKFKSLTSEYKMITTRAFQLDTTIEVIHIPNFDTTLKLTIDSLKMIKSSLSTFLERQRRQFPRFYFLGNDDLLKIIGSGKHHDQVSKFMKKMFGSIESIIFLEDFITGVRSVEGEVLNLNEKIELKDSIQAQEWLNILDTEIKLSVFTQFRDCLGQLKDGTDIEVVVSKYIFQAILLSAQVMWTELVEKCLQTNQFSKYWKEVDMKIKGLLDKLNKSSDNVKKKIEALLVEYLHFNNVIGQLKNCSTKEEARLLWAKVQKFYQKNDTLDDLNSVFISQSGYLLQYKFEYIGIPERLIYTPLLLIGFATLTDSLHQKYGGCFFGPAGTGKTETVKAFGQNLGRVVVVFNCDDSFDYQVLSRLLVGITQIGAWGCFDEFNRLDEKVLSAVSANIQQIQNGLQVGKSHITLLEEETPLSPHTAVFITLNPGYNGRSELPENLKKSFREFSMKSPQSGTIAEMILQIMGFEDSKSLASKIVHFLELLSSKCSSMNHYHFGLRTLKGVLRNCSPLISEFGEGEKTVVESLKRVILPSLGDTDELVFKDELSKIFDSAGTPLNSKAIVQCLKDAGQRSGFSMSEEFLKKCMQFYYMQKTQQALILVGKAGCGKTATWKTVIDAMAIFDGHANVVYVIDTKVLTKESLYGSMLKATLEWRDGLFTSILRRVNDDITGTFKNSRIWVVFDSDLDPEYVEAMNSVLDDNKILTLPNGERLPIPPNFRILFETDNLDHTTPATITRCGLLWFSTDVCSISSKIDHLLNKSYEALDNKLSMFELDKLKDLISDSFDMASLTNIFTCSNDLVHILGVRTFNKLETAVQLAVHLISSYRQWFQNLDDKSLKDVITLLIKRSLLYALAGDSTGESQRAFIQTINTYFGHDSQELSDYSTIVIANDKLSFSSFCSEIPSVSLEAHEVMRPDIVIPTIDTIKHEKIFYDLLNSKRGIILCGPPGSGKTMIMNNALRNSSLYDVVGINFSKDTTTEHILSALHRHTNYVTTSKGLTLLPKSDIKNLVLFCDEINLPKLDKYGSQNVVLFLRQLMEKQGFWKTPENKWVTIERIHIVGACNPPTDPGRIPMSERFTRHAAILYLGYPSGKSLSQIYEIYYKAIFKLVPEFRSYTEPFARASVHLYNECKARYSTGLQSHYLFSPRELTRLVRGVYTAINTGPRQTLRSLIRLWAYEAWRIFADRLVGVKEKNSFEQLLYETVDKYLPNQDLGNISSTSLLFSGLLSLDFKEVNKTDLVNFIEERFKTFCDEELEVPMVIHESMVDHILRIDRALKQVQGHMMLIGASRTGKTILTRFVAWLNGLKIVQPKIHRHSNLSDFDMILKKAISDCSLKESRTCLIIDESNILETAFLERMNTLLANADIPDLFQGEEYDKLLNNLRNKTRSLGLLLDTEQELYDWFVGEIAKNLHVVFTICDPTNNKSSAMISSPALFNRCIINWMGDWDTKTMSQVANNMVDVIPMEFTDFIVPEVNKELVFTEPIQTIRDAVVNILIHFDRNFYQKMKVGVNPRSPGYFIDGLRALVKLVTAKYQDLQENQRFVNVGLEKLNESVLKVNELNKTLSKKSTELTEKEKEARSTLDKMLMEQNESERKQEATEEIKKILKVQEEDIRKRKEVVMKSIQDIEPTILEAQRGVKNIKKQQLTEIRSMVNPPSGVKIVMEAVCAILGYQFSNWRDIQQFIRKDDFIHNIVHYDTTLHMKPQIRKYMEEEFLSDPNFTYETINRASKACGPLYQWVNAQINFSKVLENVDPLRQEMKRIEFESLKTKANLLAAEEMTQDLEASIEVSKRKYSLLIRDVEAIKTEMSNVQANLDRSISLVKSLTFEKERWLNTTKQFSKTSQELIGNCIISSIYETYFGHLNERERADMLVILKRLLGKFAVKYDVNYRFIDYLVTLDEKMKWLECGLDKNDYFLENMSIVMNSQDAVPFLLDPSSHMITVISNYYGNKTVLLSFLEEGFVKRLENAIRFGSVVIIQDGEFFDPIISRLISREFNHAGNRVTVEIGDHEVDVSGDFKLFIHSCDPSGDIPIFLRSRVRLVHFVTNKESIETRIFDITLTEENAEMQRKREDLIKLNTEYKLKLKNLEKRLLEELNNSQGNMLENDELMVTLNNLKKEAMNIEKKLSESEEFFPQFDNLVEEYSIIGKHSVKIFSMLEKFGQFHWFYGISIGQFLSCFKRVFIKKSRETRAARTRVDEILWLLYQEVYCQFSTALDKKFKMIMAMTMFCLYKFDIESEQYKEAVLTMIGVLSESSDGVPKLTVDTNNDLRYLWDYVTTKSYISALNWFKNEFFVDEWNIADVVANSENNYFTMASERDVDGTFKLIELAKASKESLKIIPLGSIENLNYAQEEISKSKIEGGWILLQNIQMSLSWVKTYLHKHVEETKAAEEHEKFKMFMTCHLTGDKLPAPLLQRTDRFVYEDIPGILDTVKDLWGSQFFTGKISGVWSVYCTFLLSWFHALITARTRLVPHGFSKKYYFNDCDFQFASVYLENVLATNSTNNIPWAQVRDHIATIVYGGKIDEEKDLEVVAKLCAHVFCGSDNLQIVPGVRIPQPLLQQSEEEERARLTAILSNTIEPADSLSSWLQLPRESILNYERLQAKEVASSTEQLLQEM

[3] = molecular target: monomeric dynein motor domain, dynein_(331kDa) without tags on the linker (S. cerevisiae); experiment: as above
[4] = molecular target: T2, short linker dynein DYN1_(314kDa) K3438E, R3445E, F3446D (AAA5 linker-docking mutant), monomeric (S. cerevisiae, UniProt P36022 1365-4092, K3438E | R3445E | F3446D); experiment: SEC; 400–800 nM dynein and 475–800 nM Lis1 mixed for 10 min at 4°C; Superose 6 PC 3.2/30; 50 mM Tris–HCl pH 8.0, 150 mM potassium acetate, 2 mM magnesium acetate, 1 mM EGTA, 1 mM DTT; fractions on SDS-PAGE with SYPRO Red, bands quantified in ImageJ; settings: both partners purified
T2 construct: Cytoplasmic dynein heavy chain (DYN1), S. cerevisiae, 314 kDa motor construct DYN1_(314kDa) (linker truncated at residue 1365) with the AAA5 mutations; also called short linker dynein with AAA5 mutations; GFP-3xHA-DYN1_(314kDa)^K3438E,R3445E,F3446D-gs-DHA
T2 sequence (P36022 1365-4092 K3438E/R3445E/F3446D): as the sequence (P36022 1365-4092) above, with K2074E, R2081E, F2082D counted along it

[5] = molecular target: T3, short linker dynein, GFP-3xHA-DYN1_(314kDa)-gs-DHA, monomeric (S. cerevisiae, UniProt P36022 1365-4092); experiment: as above; settings: both partners purified
T3 construct: ZZ tag probably cut off by Tev; also called monomeric short linker dynein; short linker construct; not shown: GFP, N-terminal, kept; 3xHA, N-terminal, kept
T3 sequence (P36022 1365-4092): as the sequence (P36022 1365-4092) above

| GST-dynein (331kDa) share of the dynein:Lis1 band ratio in the SEC complex peak [1] | Lis1 share of the dynein:Lis1 band ratio in the SEC complex peak [1] | binding result [2] | stoichiometry N (Lis1 propeller per dynein motor domain) [3] | binding result [4] | binding result [5] | Binder |
| --- | --- | --- | --- | --- | --- | --- |
| 0.88 | 0.12 |  |  |  |  | Lis1^R301A (natural protein) MTNWQQQLPLTDTQKNELDKSVLRYLNWNYKQTVRHEHAQDYESVRHAIVTLSGFLLQESVDRQEFISNNDTSNESMVDIDELLLPKKWNSIVRLQKKIIELEQNTETLVSQIKDLNTQVSELAQFKPTTSNGTSAHNVLKWIPRNLPSCLINVESSVTSVKLHPNLPIVFVATDHGKLYAFDLFNYTIPLASLQSHTKAITSMDVLFTNYTNSSKKNYLVIVTASKDLQIHVFKWVSEECKFQQIRSLLGHEHIVSAVKIWQKNNDVHIASCSRDQTVKIWDFHNGWSLKTFQPHSQWVASIDVLGDYIISGSHDTTLRLTHWPSGNGLSVGTGHEFPIEKVKFIHFIEDSPEIRFRTPSTDRYKNWGMQYCVSASRDRTIKIWEIPLPTLMAHRAPIPNPTDSNFRCVLTLKGHLSWVRDISIRGQYLFSCADDKSVRCWDLNTGQCLHVWEKLHTGFVNCLDLDVDFDSNVTPRQMMVTGGLDCKSNVFMR |
| 0.82 | 0.18 | binds | 1 | binds | binds | Lis1 (Pac1), wild type, dimer (natural protein, S. cerevisiae, UniProt P39946 1-494, looked up, Lis1 ortholog Pac1 (PAC1), S. cerevisiae; genomic PAC1 copy with ZZ-Tev in front; A Tev site follows the ZZ tag and a TEV buffer is named for the Lis1 purification, so the ZZ tag was probably cut off; also called WT Lis1; wild-type Lis1) MTNWQQQLPLTDTQKNELDKSVLRYLNWNYKQTVRHEHAQDYESVRHAIVTLSGFLLQESVDRQEFISNNDTSNESMVDIDELLLPKKWNSIVRLQKKIIELEQNTETLVSQIKDLNTQVSELAQFKPTTSNGTSAHNVLKWIPRNLPSCLINVESSVTSVKLHPNLPIVFVATDHGKLYAFDLFNYTIPLASLQSHTKAITSMDVLFTNYTNSSKKNYLVIVTASKDLQIHVFKWVSEECKFQQIRSLLGHEHIVSAVKIWQKNNDVHIASCSRDQTVKIWDFHNGWSLKTFQPHSQWVRSIDVLGDYIISGSHDTTLRLTHWPSGNGLSVGTGHEFPIEKVKFIHFIEDSPEIRFRTPSTDRYKNWGMQYCVSASRDRTIKIWEIPLPTLMAHRAPIPNPTDSNFRCVLTLKGHLSWVRDISIRGQYLFSCADDKSVRCWDLNTGQCLHVWEKLHTGFVNCLDLDVDFDSNVTPRQMMVTGGLDCKSNVFMR |
| 0.85 | 0.15 |  |  |  |  | Lis1^R275A (natural protein) MTNWQQQLPLTDTQKNELDKSVLRYLNWNYKQTVRHEHAQDYESVRHAIVTLSGFLLQESVDRQEFISNNDTSNESMVDIDELLLPKKWNSIVRLQKKIIELEQNTETLVSQIKDLNTQVSELAQFKPTTSNGTSAHNVLKWIPRNLPSCLINVESSVTSVKLHPNLPIVFVATDHGKLYAFDLFNYTIPLASLQSHTKAITSMDVLFTNYTNSSKKNYLVIVTASKDLQIHVFKWVSEECKFQQIRSLLGHEHIVSAVKIWQKNNDVHIASCSADQTVKIWDFHNGWSLKTFQPHSQWVRSIDVLGDYIISGSHDTTLRLTHWPSGNGLSVGTGHEFPIEKVKFIHFIEDSPEIRFRTPSTDRYKNWGMQYCVSASRDRTIKIWEIPLPTLMAHRAPIPNPTDSNFRCVLTLKGHLSWVRDISIRGQYLFSCADDKSVRCWDLNTGQCLHVWEKLHTGFVNCLDLDVDFDSNVTPRQMMVTGGLDCKSNVFMR |
| 0.85 | 0.15 |  |  |  |  | Lis1^K437A (natural protein) MTNWQQQLPLTDTQKNELDKSVLRYLNWNYKQTVRHEHAQDYESVRHAIVTLSGFLLQESVDRQEFISNNDTSNESMVDIDELLLPKKWNSIVRLQKKIIELEQNTETLVSQIKDLNTQVSELAQFKPTTSNGTSAHNVLKWIPRNLPSCLINVESSVTSVKLHPNLPIVFVATDHGKLYAFDLFNYTIPLASLQSHTKAITSMDVLFTNYTNSSKKNYLVIVTASKDLQIHVFKWVSEECKFQQIRSLLGHEHIVSAVKIWQKNNDVHIASCSRDQTVKIWDFHNGWSLKTFQPHSQWVRSIDVLGDYIISGSHDTTLRLTHWPSGNGLSVGTGHEFPIEKVKFIHFIEDSPEIRFRTPSTDRYKNWGMQYCVSASRDRTIKIWEIPLPTLMAHRAPIPNPTDSNFRCVLTLKGHLSWVRDISIRGQYLFSCADDASVRCWDLNTGQCLHVWEKLHTGFVNCLDLDVDFDSNVTPRQMMVTGGLDCKSNVFMR |
